Measurements: IntAct's records for PubMed 23603394

B1: PH and SEC7 domain-containing protein 1 (Homo sapiens), A5PKW4 (parent)
chain: MAQGAMRFCSEGDCAISPPRCPRRWLPEGPVPQSPPASMYGSTGSLLRRVAGPGPRGRELGRVTAPCTPLRGPPSPRVAPSPWAPSSPTGQPPPGAQSSVVIFRFVEKASVRPLNGLPAPGGLSRSWDLGGVSPPRPTPALGPGSNRKLRLEASTSDPLPARGGSALPGSRNLVHGPPAPPQVGADGLYSSLPNGLGGPPERLATLFGGPADTGFLNQGDTWSSPREVSSHAQRIARAKWEFFYGSLDPPSSGAKPPEQAPPSPPGVGSRQGSGVAVGRAAKYSETDLDTVPLRCYRETDIDEVLAEREEADSAIESQPSSEGPPGTAYPPAPRPGPLPGPHPSLGSGNEDEDDDEAGGEEDVDDEVFEASEGARPGSRMPLKSPVPFLPGTSPSADGPDSFSCVFEAILESHRAKGTSYTSLASLEALASPGPTQSPFFTFELPPQPPAPRPDPPAPAPLAPLEPDSGTSSAADGPWTQRGEEEEAEARAKLAPGREPPSPCHSEDSLGLGAAPLGSEPPLSQLVSDSDSELDSTERLALGSTDTLSNGQKADLEAAQRLAKRLYRLDGFRKADVARHLGKNNDFSKLVAGEYLKFFVFTGMTLDQALRVFLKELALMGETQERERVLAHFSQRYFQCNPEALSSEDGAHTLTCALMLLNTDLHGHNIGKRMTCGDFIGNLEGLNDGGDFPRELLKALYSSIKNEKLQWAIDEEELRRSLSELADPNPKVIKRISGGSGSGSSPFLDLTPEPGAAVYKHGALVRKVHADPDCRKTPRGKRGWKSFHGILKGMILYLQKEEYKPGKALSETELKNAISIHHALATRASDYSKRPHVFYLRTADWRVFLFQAPSLEQMQSWITRINVVAAMFSAPPFPAAVSSQKKFSRPLLPSAATRLSQEEQVRTHEAKLKAMASELREHRAAQLGKKGRGKEAEEQRQKEAYLEFEKSRYSTYAALLRVKLKAGSEELDAVEAALAQAGSTEDGLPPSHSSPSLQPKPSSQPRAQRHSSEPRPGAGSGRRKP

Variants of: B1
Conditions: with arf6_human ARF6, P62330
Chain of arf6_human ARF6, P62330 (P62330 whole entry): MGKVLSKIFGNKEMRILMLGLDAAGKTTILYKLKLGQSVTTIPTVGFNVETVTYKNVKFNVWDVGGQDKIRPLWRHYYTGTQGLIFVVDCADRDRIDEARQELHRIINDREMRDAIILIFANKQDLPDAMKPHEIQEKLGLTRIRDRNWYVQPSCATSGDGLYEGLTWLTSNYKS

Variant	effect of a mutation on the interaction
R765E	decreasing interaction
K766E	decreasing interaction

Variants of: B1
Conditions: with arf6_human ARF6, P62330
Remark: another data set of the same source

Variant	effect of a mutation on the interaction
E621K	disrupting interaction

Variants of: B1
Conditions: with arf6_human ARF6, P62330
Remark: another data set of the same source

Variant	effect of a mutation on the interaction
E621K	decreasing interaction
